Reference: the supplement of paper PMC10724198
± gives the standard deviation of the averaged measurements.

Test system: Saccharomyces cerevisiae
Experiment: protein stability index of tFT-peptide fusion (C-terminal peptide) (PSI (0-1 scale)); higher = more stable (slower turnover)
Settings: temperature: 30 C
Method: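 MPS profiling in S. cerevisiae of the yeast C-terminome library: the last 12 aa of each annotated ORF are fused to the C-terminus of a sfGFP-mCherry timer, after a GGGS linker. Cells are FACS-sorted into 8 mCherry/sfGFP bins and deep-sequenced. PSI runs from 0 (unstable) to 1 (stable); wild type and das1Δ backgrounds, two technical replicates each.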

[1] = genetic background: das1 deletion

| Sequence | protein stability index [1] | protein stability index (genetic background: wild type) |
| --- | --- | --- |
| GGLSDIGKNTSN [HUG1 C-terminal 12 aa] | 0.693 ± 0.013 | 0.684 ± 0.016 |
| GKVAKYIFDNIC [BNA7 C-terminal 12 aa] | 0.696 ± 0.015 | 0.722 ± 0.024 |
| DDILSHGFEPLA [HTC1 C-terminal 12 aa] | 0.7177 ± 0.0033 | 0.706 ± 0.027 |
| QPDDKTKGILDR [ERV41 C-terminal 12 aa] | 0.7292 ± 0.0051 | 0.682 ± 0.03 |
| SKGAQKRKNAKK [SHR3 C-terminal 12 aa] | 0.682 ± 0.009 | 0.66 ± 0.022 |
| WGSIGQKLRRSA [YOL118C C-terminal 12 aa] | 0.704 ± 0.012 | 0.728 ± 0.015 |
| ELKINNDGRLVN [SEC66 C-terminal 12 aa] | 0.7137 ± 0.0053 | 0.714 ± 0.074 |
| PFPLLRLSAPFK [OST3 C-terminal 12 aa] | 0.72 ± 0.0091 | 0.749 ± 0.061 |
| EQNFHFQFPPTN [IOC2 C-terminal 12 aa] | 0.7147 ± 0.0049 | 0.729 ± 0.021 |
| PHYAGCLEDIIF [YER066C-A C-terminal 12 aa] | 0.719 ± 0.046 | 0.74 ± 0.035 |
| QQEQDKKKKSNH [PRE6 C-terminal 12 aa] | 0.709 ± 0.013 | 0.49 ± 0.013 |
| VIASDESSHLSY [YHR127W C-terminal 12 aa] | 0.709 ± 0.017 | 0.699 ± 0.024 |
| FVRKIYSSIKVD [EMP70 C-terminal 12 aa] | 0.665 ± 0.025 | 0.614 ± 0.04 |
| KQIAKQSSKMMK [VMR1 C-terminal 12 aa] | 0.686 ± 0.0041 | 0.708 ± 0.03 |
| RMYTRHKTSFPL [YAL042C-A C-terminal 12 aa] | 0.711 ± 0.02 | 0.66427 ± 0.00065 |
| GLQFHFKAEHKD [PHO86 C-terminal 12 aa] | 0.701 ± 0.014 | 0.686 ± 0.058 |
| TSQEINDRLEAL [PRE8 C-terminal 12 aa] | 0.666 ± 0.027 | 0.643 ± 0.0082 |
| IVSFLSDETKSP [ECM18 C-terminal 12 aa] | 0.7282 ± 0.0009 | 0.714 ± 0.011 |
| KNIKRDLRNVRI [TAX4 C-terminal 12 aa] | 0.7 ± 0.045 | 0.6514 ± 0.0059 |
| TNMSSVSAFISR [PTK2 C-terminal 12 aa] | 0.718 ± 0.0017 | 0.713 ± 0.013 |
| VGNYFMAIQRLN [COQ3 C-terminal 12 aa] | 0.731 ± 0.025 | 0.16 ± 0.017 |

| Sequence | protein stability index [1] | protein stability index (genetic background: wild type) |
| --- | --- | --- |
| PAKFGIQFQYST [MDM10 C-terminal 12 aa] | 0.697 ± 0.021 | 0.662 ± 0.038 |
| EIKCCHNGRALK [SAT4 C-terminal 12 aa] | 0.668 ± 0.023 | 0.697 ± 0.06 |
| PIVHYISDRRTV [ARC15 C-terminal 12 aa] | 0.682 ± 0.013 | 0.688 ± 0.0093 |
| KQKKQQAQPLRK [VRG4 C-terminal 12 aa] | 0.704 ± 0.012 | 0.673 ± 0.026 |
| MSSFLSKKENNN [SNT1 C-terminal 12 aa] | 0.722 ± 0.024 | 0.6618 ± 0.005 |
| RITRLSSMTYTY [YPS5 C-terminal 12 aa] | 0.711 ± 0.038 | 0.69 ± 0.033 |
| YIKKSAKKGDKN [YHR140W C-terminal 12 aa] | 0.676 ± 0.032 | 0.65 ± 0.016 |
| PPNTLWHYNFRK [MRPL28 C-terminal 12 aa] | 0.751 ± 0.024 | 0.69 ± 0.018 |
| KPLLTSIFPNHK [YBL012C C-terminal 12 aa] | 0.718 ± 0.064 | 0.667 ± 0.0098 |
| VKHQPKTYRTKK [SGO1 C-terminal 12 aa] | 0.676 ± 0.015 | 0.677 ± 0.053 |
| EDHRDISGKDVN [UBP1 C-terminal 12 aa] | 0.68575 ± 0.0005 | 0.687 ± 0.033 |
| KEYISDQRKKRK [LOA1 C-terminal 12 aa] | 0.6823 ± 0.00078 | 0.722 ± 0.023 |
| NEEYIEELDLVL [HSH155 C-terminal 12 aa] | 0.696 ± 0.0089 | 0.674 ± 0.015 |
| YRIIDCVIAQLP [NVJ3 C-terminal 12 aa] | 0.669 ± 0.045 | 0.655 ± 0.046 |
| PWFAPIREQIEK [CKA1 C-terminal 12 aa] | 0.722 ± 0.011 | 0.7489 ± 0.0034 |
| QMTRNVNNNDFS [YAH1 C-terminal 12 aa] | 0.711 ± 0.028 | 0.664 ± 0.014 |
| EAAKKSEKKSKK [RPL34B C-terminal 12 aa] | 0.702 ± 0.015 | 0.706 ± 0.042 |
| GLVATAVKQLPQ [VPS64 C-terminal 12 aa] | 0.674 ± 0.0032 | 0.662 ± 0.014 |
| RNWLGFCTKYEL [ATG15 C-terminal 12 aa] | 0.741 ± 0.021 | 0.735 ± 0.047 |
| NQRSFNDKSKRD [CAX4 C-terminal 12 aa] | 0.692 ± 0.009 | 0.6901 ± 0.0064 |
| STMQERFAESTD [VMA1 C-terminal 12 aa] | 0.682 ± 0.011 | 0.706 ± 0.032 |

| Sequence | protein stability index [1] | protein stability index (genetic background: wild type) |
| --- | --- | --- |
| NLMVADDKVWRV [MCM3 C-terminal 12 aa] | 0.696 ± 0.017 | 0.7005 ± 0.0019 |
| LRRGEPDNKVNR [SPG4 C-terminal 12 aa] | 0.71 ± 0.019 | 0.708 ± 0.012 |
| NFQTHYRDELLQ [REH1 C-terminal 12 aa] | 0.729 ± 0.054 | 0.584 ± 0.016 |
| EEKTKKEKSLLQ [NPP2 C-terminal 12 aa] | 0.7035 ± 0.0011 | 0.726 ± 0.072 |
| QDNSEVVDLTSD [NFI1 C-terminal 12 aa] | 0.694 ± 0.012 | 0.6728 ± 0.006 |
| SNYGGNSTWGGH [SPT5 C-terminal 12 aa] | 0.732 ± 0.11 | 0.673 ± 0.16 |
| ARAAAEYDCTVA [ATR1 C-terminal 12 aa] | 0.702 ± 0.013 | 0.7 ± 0.036 |
| NNASEDDRGIRV [STB2 C-terminal 12 aa] | 0.6973 ± 0.0012 | 0.685 ± 0.089 |
| PSYCSLRWSHRT [YLR169W C-terminal 12 aa] | 0.7331 ± 0.006 | 0.705 ± 0.029 |
| DDCLIELPNGNI [RRN9 C-terminal 12 aa] | 0.6888 ± 0.0021 | 0.703 ± 0.041 |
| SPVPTKKKGFLR [CDC3 C-terminal 12 aa] | 0.705 ± 0.017 | 0.684 ± 0.012 |
| VRILTKYPKILV [RIM101 C-terminal 12 aa] | 0.488 ± 0.021 | 0.5 ± 0.0066 |
| LFCYCSCDSYES [YBL100C C-terminal 12 aa] | 0.646 ± 0.017 | 0.668 ± 0.031 |
| GTKVDDDKKNKS [SPP2 C-terminal 12 aa] | 0.7041 ± 0.0011 | 0.663 ± 0.03 |
| VLIKHDHTNTHI [MMT1 C-terminal 12 aa] | 0.703 ± 0.028 | 0.701 ± 0.034 |
| DAKNANEKNKTY [PIS1 C-terminal 12 aa] | 0.687 ± 0.035 | 0.42 ± 0.033 |
| KKKFYKQYHFDL [PDR8 C-terminal 12 aa] | 0.715 ± 0.016 | 0.727 ± 0.035 |
| RDHDLKDCGDIF [OSH2 C-terminal 12 aa] | 0.7104 ± 0.0011 | 0.698 ± 0.039 |
| IWLVYKLYCFIF [CST26 C-terminal 12 aa] | 0.3724 ± 0.0025 | 0.3155 ± 0.0014 |
| ANEALQHILDDS [INO2 C-terminal 12 aa] | 0.6882 ± 0.0011 | 0.69 ± 0.024 |
| LAKLINKSCVFK [YKL069W C-terminal 12 aa] | 0.7 ± 0.023 | 0.642 ± 0.029 |

| Sequence | protein stability index [1] | protein stability index (genetic background: wild type) |
| --- | --- | --- |
| ALPTYTMEYLDI [UTP8 C-terminal 12 aa] | 0.72 ± 0.032 | 0.698 ± 0.035 |
| MQRVSTQHEKSS [PMA2 C-terminal 12 aa] | 0.693 ± 0.024 | 0.711 ± 0.096 |
| RRIIESINKSQG [HAT1 C-terminal 12 aa] | 0.659 ± 0.012 | 0.6752 ± 0.0052 |
| NIGDFSPDLMDS [MSS11 C-terminal 12 aa] | 0.684 ± 0.011 | 0.713 ± 0.0096 |
| YAINSGARFDLS [HUL5 C-terminal 12 aa] | 0.713 ± 0.025 | 0.687 ± 0.0069 |
| IADASSLSWNMK [LEM3 C-terminal 12 aa] | 0.697 ± 0.038 | 0.719 ± 0.011 |
| IMDKLRAMKNRM [GLO2 C-terminal 12 aa] | 0.689 ± 0.053 | 0.663 ± 0.032 |
| EEEKRHGINLKC [GUP2 C-terminal 12 aa] | 0.6905 ± 0.004 | 0.687 ± 0.045 |
| RQYAGCKVNVGK [NUS1 C-terminal 12 aa] | 0.707 ± 0.015 | 0.705 ± 0.051 |
| VMEEEEQDCKCI [POP8 C-terminal 12 aa] | 0.6923 ± 0.00099 | 0.6519 ± 0.0055 |
| PLRLLIRPVGEL [YOR248W C-terminal 12 aa] | 0.679 ± 0.008 | 0.673 ± 0.042 |
| TFELVMRFLGEE [YMC2 C-terminal 12 aa] | 0.709 ± 0.0094 | 0.669 ± 0.0095 |
| LTQVEKPRGIFD [DDC1 C-terminal 12 aa] | 0.71 ± 0.023 | 0.674 ± 0.013 |
| IVFTSVGAFNIL [YMR172C-A C-terminal 12 aa] | 0.717 ± 0.016 | 0.7349 ± 0.0029 |
| TLGLLCLIFGLP [YOR277C C-terminal 12 aa] | 0.482 ± 0.0081 | 0.499 ± 0.018 |
| SSSEQITSSITS [YAR062W C-terminal 12 aa] | 0.71 ± 0.025 | 0.67 ± 0.008 |
| GSNAEEDDDLYS [CDC48 C-terminal 12 aa] | 0.7027 ± 0.0045 | 0.653 ± 0.03 |
| GPLLDYLSSDED [CWC2 C-terminal 12 aa] | 0.7139 ± 0.0039 | 0.693 ± 0.0055 |
| LVRFIEAEKFVG [SNX3 C-terminal 12 aa] | 0.7119 ± 0.003 | 0.6912 ± 0.0047 |
